Experimental findings from PMC4366370, “Overexpression of a Novel Thermostable and Chloride-Tolerant Laccase from Thermus thermophilus SG0.5JP17-16 in Pichia pastoris and Its Application in Synthetic Dye Decolorization” (PLoS ONE, 2015) are described below.

For orientation: Km means the substrate concentration at which the rate is half of its maximum. For orientation: kcat means the number of substrate molecules converted per active site and unit of time at saturation. The term kcat/Km denotes the turnover number divided by the Michaelis constant.

One data set deals with COc1ccccc1O. Kind of data set: purified protein. As to conditions: optimal pH 7.5, 90°C.
In data set [1] the test system is COc1cc(C=NN=Cc2cc(OC)c(O)c(OC)c2)cc(OC)c1O. Kind of data set: purified protein. As to conditions: optimal pH 6.0, 90°C.

Regarding “LacTT (Thermus thermophilus SG0.5JP17-16)”, in the data set on COc1ccccc1O, the Km was 363.3 ± 29.1 µM, the kcat came to 4.34 ± 0.216 s⁻¹ and the kcat/Km came out at 12000 ± 1000 M⁻¹ s⁻¹. In addition, in data set [1], the Michaelis-Menten constant (Km) is 27.0 ± 1.5 µM, the turnover number (kcat) was 1 ± 0.061 s⁻¹ and the kcat/Km is 37000 ± 2700 M⁻¹ s⁻¹.
